# Reference: IntAct's records for PubMed 20142513
# B1: Multiple coagulation factor deficiency protein 2 (Homo sapiens), Q8NI22 (parent)
# chain: MTMRSLLRTPFLCGLLWAFCAPGARAEEPAASFSQPGSMGLDKNTVHDQEHIMEHLEGVINKPEAEMSPQELQLHYFKMHDYDGNNLLDGLELSTAITHVHKEEGSEQAPLMSEDELINIIDGVLRDDDKNNDGYIDYAEFAKSLQ
# partner: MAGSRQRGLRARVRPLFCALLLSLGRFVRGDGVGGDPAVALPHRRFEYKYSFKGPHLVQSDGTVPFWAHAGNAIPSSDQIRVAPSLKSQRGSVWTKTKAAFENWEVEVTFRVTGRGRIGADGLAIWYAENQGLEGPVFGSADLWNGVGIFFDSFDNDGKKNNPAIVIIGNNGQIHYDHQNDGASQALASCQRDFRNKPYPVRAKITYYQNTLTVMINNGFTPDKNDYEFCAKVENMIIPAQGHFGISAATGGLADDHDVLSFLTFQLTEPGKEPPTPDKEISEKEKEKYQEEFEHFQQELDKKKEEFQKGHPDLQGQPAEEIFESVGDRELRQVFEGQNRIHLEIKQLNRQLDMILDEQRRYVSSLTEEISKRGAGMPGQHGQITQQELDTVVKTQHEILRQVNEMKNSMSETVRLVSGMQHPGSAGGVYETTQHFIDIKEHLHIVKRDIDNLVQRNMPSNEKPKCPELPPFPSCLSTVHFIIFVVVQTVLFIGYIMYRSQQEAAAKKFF
# B2: Protein ERGIC-53 (Homo sapiens), P49257 (parent)
# chain: B1 partner
# partner: B1 chain
# Variants of: B1
# Settings: with lman1_human LMAN1, P49257
row,effect of a mutation on the interaction,Variant
1,disrupting interaction,MTMRSLLRTPFLCGLLWAFCAPGARAEEPAASFSQPGSMGLDKNTVHDQEHIMEHLEGVINKPEAEMSPQELQLHYFKMHDYDGNNLLAGLELSTAITHVHKEEGSEQAPLMSEDELINIIDGVLRDDDKNNDGYIDYAEFAKSLQ [D89A]

# Variants of: B1
# Settings: with lman1_human LMAN1, P49257
# Remark: another data set of the same source
row,effect of a mutation on the interaction,Variant
1,disrupting interaction,MTMRSLLRTPFLCGLLWAFCAPGARAEEPAASFSQPGSMGLDKNTVHDQEHIMEHLEGVINKPEAEMSPQELQLHYFKMHDYDGNNLLDGLELSTAITHVHKEEGSEQAPLMSEDELINIIVGVLRDDDKNNDGYIDYAEFAKSLQ [D122V]

# Variants of: B1
# Settings: with lman1_human LMAN1, P49257
# Remark: another data set of the same source
row,effect of a mutation on the interaction,Variant
1,decreasing interaction,MTMRSLLRTPFLCGLLWAFCAPGARAEEPAASFSQPGSMGLDKNTVHDQEHIMEHLEGVINKPEAEMSPQELQLHYFKMHDYDGNNLLDGLELSTAITHVHKEEGSEQAPLMSEDELINIIVGVLRDDDKNNDGYIDYAEFAKSLQ [D122V]

# Variants of: B2
# Settings: with mcfd2_human MCFD2, Q8NI22
row,effect of a mutation on the interaction,Variant
1,decreasing interaction,MAGSRQRGLRARVRPLFCALLLSLGRFVRGDGVGGDPAVALPHRAFEYKYSFKGPHLVQSDGTVPFWAHAGNAIPSSDQIRVAPSLKSQRGSVWTKTKAAFENWEVEVTFRVTGRGRIGADGLAIWYAENQGLEGPVFGSADLWNGVGIFFDSFDNDGKKNNPAIVIIGNNGQIHYDHQNDGASQALASCQRDFRNKPYPVRAKITYYQNTLTVMINNGFTPDKNDYEFCAKVENMIIPAQGHFGISAATGGLADDHDVLSFLTFQLTEPGKEPPTPDKEISEKEKEKYQEEFEHFQQELDKKKEEFQKGHPDLQGQPAEEIFESVGDRELRQVFEGQNRIHLEIKQLNRQLDMILDEQRRYVSSLTEEISKRGAGMPGQHGQITQQELDTVVKTQHEILRQVNEMKNSMSETVRLVSGMQHPGSAGGVYETTQHFIDIKEHLHIVKRDIDNLVQRNMPSNEKPKCPELPPFPSCLSTVHFIIFVVVQTVLFIGYIMYRSQQEAAAKKFF [R45A]
